This note sets out measurements from US20260217797A1 (Takeda / Millennium, published 2026).

Experiment [1] addresses SARS-CoV-2 S Trimer (SARS-CoV-2, UniProt P0DTC2 16-1213). Description: Octet BLI, IgG, avid.
The target of experiment [2] is T1, MERS-CoV [change] (MERS-CoV, UniProt K9N5Q8 18-725).
T1 sequence: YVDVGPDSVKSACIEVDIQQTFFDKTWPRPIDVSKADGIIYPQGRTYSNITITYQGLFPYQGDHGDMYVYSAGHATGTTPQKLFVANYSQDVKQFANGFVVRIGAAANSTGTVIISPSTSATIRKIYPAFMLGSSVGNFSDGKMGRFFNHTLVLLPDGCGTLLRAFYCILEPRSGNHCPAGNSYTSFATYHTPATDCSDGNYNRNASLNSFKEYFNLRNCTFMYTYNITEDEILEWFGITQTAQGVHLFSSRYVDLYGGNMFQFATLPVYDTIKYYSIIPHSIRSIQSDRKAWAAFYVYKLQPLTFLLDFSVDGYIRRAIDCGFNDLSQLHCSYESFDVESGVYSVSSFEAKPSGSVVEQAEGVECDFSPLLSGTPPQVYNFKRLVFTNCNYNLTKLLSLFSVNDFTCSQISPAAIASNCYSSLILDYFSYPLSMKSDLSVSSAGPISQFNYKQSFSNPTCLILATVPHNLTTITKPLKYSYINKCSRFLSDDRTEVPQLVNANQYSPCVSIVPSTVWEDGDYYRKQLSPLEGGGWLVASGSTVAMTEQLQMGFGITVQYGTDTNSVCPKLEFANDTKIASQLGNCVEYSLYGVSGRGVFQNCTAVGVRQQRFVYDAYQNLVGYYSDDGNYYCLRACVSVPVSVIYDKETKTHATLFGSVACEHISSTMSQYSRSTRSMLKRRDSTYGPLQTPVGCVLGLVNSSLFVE
Description: Octet BLI, IgG, monovalent.

Experiment [3] has as its target T2, SARS-CoV1 Spike [change] (SARS-CoV-1, UniProt P59594 14-667). Description: Octet BLI, IgG, monovalent. For orientation: In BLI a coated tip is dipped into the sample, and binding shifts an interference pattern.
Experiment [4] addresses T3, SARS-CoV-2 Spike S1-His (SARS-CoV-2, UniProt P0DTC2 16-685). Description: Octet BLI, IgG, monovalent.
In experiment [5] the target is T4, SARS-CoV-2 wild type spike protein (on reporter virus particles) (SARS-CoV-2, UniProt P0DTC2 14-1273). Description: cell-based or functional assay.
For experiment [6], the target named is T2, SARS-CoV1 Spike [change]. Briefly: Octet BLI, IgG, monovalent. This is another data set of the same source.
For experiment [7], the target named is T4, SARS-CoV-2 wild type spike protein (on …). Briefly: cell-based or functional assay. The source holds these as a separate data set.
In experiment [8] the target is T3, SARS-CoV-2 Spike S1-His. Briefly: Octet BLI, IgG, monovalent. The source holds these as a separate data set.

Read-outs that look alike come from different tables or passages of the source.

B1: A-14 (antibody, V domains shown)
VH: EVQLVESGGGVVQPGRSLRLSCAASGFTFSTYGMHWVRQAPGKGLEWVAVIWYDGSNKYYADSVKGRFTISRDNSKNTLYLQMNSLRAEDTAVYYCARSVDGDYLEYFQHWGQGTLVTVSS
VL: QPVLTQPRSVSGSPGQSVTISCTGTSSDVGGYNYVSWYQQHPGKAPKLMIYDVSKRPSGVPDRFSGSKSGNTASLTISGLQAEDEADYYCCSYAGGYTNYVFGTGTKLTVL
What is called Kd is a measure of binding affinity in units of concentration. Take B1: the figures for the equilibrium dissociation constant (Kd) in experiment [1] and in experiment [4] were 2.09 nM and 26.6 nM, respectively. The binding result in experiment [2] and in experiment [3] was “no binding” each time. For the same molecule, the “PsV Neut Assay IC50” value in experiment [5] turned out to be 1.61 nM.

B2: A-23.3 (antibody, V domains shown)
VH: EVQLVESGGGLVQPGRSLRLSCAASGFTFDDYAMHWVRQAPGKGLEWVSGTSWNSGTIGYADSVKGRFIISRDNAKNSLYLQMNSLRGEDMALYYCVKDRKREDPSLGGMDVWGQGTTVTVSS
VL: SYVLTQPPSVSVAPGQTARITCGGNNIGSKSVHWYQQKPGQAPVLVVYDDTDRPSGIPERFSGSNSGNTATLTISRVEAGDEADYYCQVWDSSSDDYVFGTGTKVTVL
For the molecule B2, in experiment [6], the binding result is listed as “no binding”.

B3: A-21.1 (antibody, V domains shown)
VH: EVQLVESGGGLVQPGGSLRLSCAASGFTFRRYWMHWVRQAPGKGLVWVSRINSDGSSTTYADSVKGRFTISRDNAKNTLYLQMNSLRAEDTAVYYCARELYYYDSRGFEEGEGWFDPWGQGTLVTVSS
VL: QSVLTQPPSVSGAPGQRVTISCTGISSNIGAGYDVHWYQQLPGTAPKLLIYGNSNRPSGVPDRFSASKSGTSAPLAITGLQAEDEADYYCQSSDRSLSGSVFGTGTKVTVL
For the molecule B3, in experiment [6], binding was characterised by a dissociation constant (Kd) of 6.57 nM. Besides, the “WT PsV IC50” value in experiment [7] is 1.75 nM.

B4: A-17 (antibody, V domains shown)
VH: EVQLQESGPGLVKPSETLSLTCTVSGGSISSYYWSWIRQPPGKGLEWIGYIYYSGSTNYNPSLKSRVTISVGTSKNQFSLKLSSVTAADTAVYYCAKSASDEPPPSTAAAGSHYYYYGMDVWGQGTTVTVSS
VL: EIVMTQSPLSLPVTPGEPASISCRSSQSLLHSNGYNYLDWYLQKPGQSPHVLIYLGSNRASGVPDRFSGSGSGTDFTLKISRVEAEDVGVYYCMQALQTPNTFGQGTKLEIK
Take B4: the binding result in experiment [2] and in experiment [3] was “no binding” throughout. The molecule further had a Kd in experiment [4] of 1.58 nM. Besides, the “PsV Neut Assay IC50” value in experiment [5] came to 0.66 nM.

B5: A-7 (antibody, V domains shown)
VH: EVQLVESGAEVRKPGASVKVSCKASGYTFTFYYIHWVRQAPGQGLEWMGWISPISGATNYAQTFQGRVTMTRDTSITTAYMELSSLTSDDTAVYYCAREKYYDSSGSSDYWGQGTLVTVSS
VL: QPVLTQPPSVSAAPGQNVTIFCSGSSSNIGNNYVSWYQQLPGPAPKLLIYENNKRPSGIPDRFSGSKSGTSATLGITGLQTGDEADYYCGTWESSLSAPRVFGSGTKLTVL
On to B5, for which the dissociation constant Kd came to 0.804 nM in experiment [1] and 2.71 nM in experiment [4]. In addition, the binding result in experiment [2] and in experiment [3] was “no binding” throughout. Besides, the “PsV Neut Assay IC50” value in experiment [5] is 0.0922 nM.

B6: A-3 (antibody, V domains shown)
VH: EVQLLESGPGLVKPSETLSLTCTVSGGSINSRSYYWGWIRQPPGKGLEWIGSIYYSGSTYYNPSLKSRVTISVDTSKNQFSLKLSSVIAADTAVYFCARLEQWELPGGWFDPWGQGTLVTVSS
VL: NFMLTQPHSVSESPGKTVTISCTRSSGSIASNYVQWYQQRPGSAPTTVIYEDNQRPSGVPDRFSGSIDISSNSASLTISGLKTEDEADYSCQSSDSSNVVFGGGTKLTVL
With B6, the Kd amounted to 0.945 nM in experiment [1] and 37.4 nM in experiment [4]. Besides, the binding result in experiment [2] and in experiment [3] was “no binding” throughout. Also, in experiment [5], the “PsV Neut Assay IC50” value is 0.419 nM.

B7: A-8 (antibody, V domains shown)
VH: EVQLLESGGGLVQPGGSLRLSCAASGFTFSSYAMSWVRQAPGKGLEWVSAISGSGNSTSYADSVKGRFTLSRDNSKNTLYLQMNSLRAEDTAIYYCAKGLGTRSFNWGAFDYWGQGTLVTVSS
VL: DIRVTQSPSSLSASVGDRVTITCRASQGISYSLAWYQQKPGKAPKLLLYAASNLESGVPSRFSGSGSGTDYTLTVSSLQPEDFATYYCQQYYSTPWTFGQGTKVEIK
In the case of B7, the Kd worked out at 1.53 nM in experiment [1] and 0.477 nM in experiment [4]. Further, the binding result in experiment [2] and in experiment [3] was “no binding” each time. Also, in experiment [5], the “PsV Neut Assay IC50” value was found to be 0.846 nM.

B8: A-5 (antibody, V domains shown)
VH: QVQLVESGGGLIQPGESLRLSCAASEFIVSRNYMSWVRQAPGKGLEWVSVIYSGGNTYYADSVKGRFTISRDNSKNTLYLQMNSLRAEDTAVYYCARDLRGPGCFDFWGQGTTVTVSS
VL: DIQVTQSPSSLSASVGDRVTITCQASQDISNFLNWYQQKPGKAPKLLIYDASNLETGVPSRFSASGSGTEFTFTISSLQPEDIATYYCQQYDNLRVTFGGGTKLEIK
Consider B8, for which the Kd in experiment [1] worked out at 2.41 nM; in experiment [4], 37.3 nM. The binding result in experiment [2] and in experiment [3] was “no binding” each time. Moreover, the “PsV Neut Assay IC50” value in experiment [5] was 1.1 nM.

B9: A-20 (antibody, V domains shown)
VH: QVQLVESGGGVVQPGRSLRLSCAASGFTFSNFAMHWVRQAPGKGLEWVAVILYDGINKYYADSVKGRFTISRGNSKNTLSLQMNSLRAEDTAVYYCARAQNYYDRSGTLQLDAFDIWGQGTLVTVSS
VL: AIQMTQSPSSLSASVGDRVTITCRASQGIRNDLGWYQQKPGKAPKLLIYAASSLQSGVPSRFSGSGSGTDFTLTISSLQPEDFATYYCLQDYNYPLTFGGGTKVEIK
Take B9: the Kd worked out at 22 nM in experiment [6] and 3.95 nM in experiment [8]. The “WT PsV IC50” value in experiment [7] was determined as 2.45 nM.

B10: A-20.1 (antibody, V domains shown)
VH: QVQLVESGGGVVQPGRSLRLSCAASGFTFSNFAMHWVRQAPGKGLEWVAVILYDGINKYYADSVKGRFTISRGNSKNTLSLQMNSLRAEDTAVYYCARAQNYYDRSGTLQLDAFDIWGQGTLVTVSS
VL: AIQMTQSPSSLSASVGDRVTITCVASQGIRNDLGWYQQKPGKAPKLLIYEASSLESGVPSRFSGSGSGTDFTLTISSLQPEDFATYYCLQDYNYPLTFGGGTKVEIK
For B10, in experiment [6], the Kd was 5.29 nM.

B11: A-12 (antibody, V domains shown)
VH: EVQLLESGGGLVQPGGSLRLSCAVSGLTVSSNYMSWVRQAPGKGLEWVSLIYSGGSTYYADSVKGRFTISRDNSKNTLYLQMNSLRAEDTAVYYCARGELGIPYGMDVWGQGTTVTVSS
VL: QSVLTQPPSVSAAPGQKVTISCSGGSSNVGDNFVSWYQQLPGTAPKLLIYDNNRRPSGIPDRFSGSKSGTSATLGITGLQTGDEADYYCGTWDSSLSAGVFGGGTKVTVL
On to B11, for which the Kd in experiment [1] came to 1.11 nM; in experiment [4], 2.57 nM. In addition, the binding result in experiment [2] and in experiment [3] was “no binding” in each case. In addition, in experiment [5], the “PsV Neut Assay IC50” value is 0.404 nM.

B12: A-15 (antibody, V domains shown)
VH: QVQLVQSGAEVKKPGASVKVSCKASGYTSSSYYMHWVRQAPGQGPEWMGIINPGGTSTSYAQKFQGRVTMTRDTSTSTVYMELSSLRSEDTAVYYCAIGYCSTTSCRWGDAFDIWGQGTMVTVSS
VL: DIQVTQSPSSLSASVGDRVTITCRASQSISSYLNWYQQKPEKAPNLLIYAASSLQSGVPSRFSGSGSGTDFTLTISSLQPEDFATYYCQQSSTTPPTFGQGTKVEIK
As for B12, the Kd in experiment [1] is 1.62 nM; in experiment [4] it was 7.82 nM. The binding result in experiment [2] and in experiment [3] was “no binding” throughout. Moreover, the “PsV Neut Assay IC50” value in experiment [5] was 1.44 nM.

B13: A-4 (antibody, V domains shown)
VH: EVQLVESGGGLIQPGGSLTLSCAASGFTVSSNYMNWVRQAPGKGLEWVSVIYSGGSTYYADSVKGRFTISRDNSKNTLYLQMNSLRAEDTAVYYCAREVYSYFDYWGQGTLVTVSS
VL: DIQLTQSPSFLSASVGDRVTITCRASQGISSYLAWYQQKPGKAPKLLIYAASTLQSGVPSRFSGSGSGTEFTLTISRLQPEDLATYYCQQLNSYPPHTFGQGAKLEIK
As to B13, in experiment [1], the Kd worked out at 1.97 nM. The binding result in experiment [2] and in experiment [3] was “no binding” in each case. Moreover, the “PsV Neut Assay IC50” value in experiment [5] worked out at 2.26 nM.
